Experimental findings from US20030120051A1 (SUGEN, published 2003) are described below.

For test [1], the target named is T1, human contactin of IMR-32 neuroblastoma cells (140 kDa protein) (human, UniProt Q12860 21-993, GPI-anchored).
T1 construct: whole, on cells; also called p140
T1 sequence (looked up): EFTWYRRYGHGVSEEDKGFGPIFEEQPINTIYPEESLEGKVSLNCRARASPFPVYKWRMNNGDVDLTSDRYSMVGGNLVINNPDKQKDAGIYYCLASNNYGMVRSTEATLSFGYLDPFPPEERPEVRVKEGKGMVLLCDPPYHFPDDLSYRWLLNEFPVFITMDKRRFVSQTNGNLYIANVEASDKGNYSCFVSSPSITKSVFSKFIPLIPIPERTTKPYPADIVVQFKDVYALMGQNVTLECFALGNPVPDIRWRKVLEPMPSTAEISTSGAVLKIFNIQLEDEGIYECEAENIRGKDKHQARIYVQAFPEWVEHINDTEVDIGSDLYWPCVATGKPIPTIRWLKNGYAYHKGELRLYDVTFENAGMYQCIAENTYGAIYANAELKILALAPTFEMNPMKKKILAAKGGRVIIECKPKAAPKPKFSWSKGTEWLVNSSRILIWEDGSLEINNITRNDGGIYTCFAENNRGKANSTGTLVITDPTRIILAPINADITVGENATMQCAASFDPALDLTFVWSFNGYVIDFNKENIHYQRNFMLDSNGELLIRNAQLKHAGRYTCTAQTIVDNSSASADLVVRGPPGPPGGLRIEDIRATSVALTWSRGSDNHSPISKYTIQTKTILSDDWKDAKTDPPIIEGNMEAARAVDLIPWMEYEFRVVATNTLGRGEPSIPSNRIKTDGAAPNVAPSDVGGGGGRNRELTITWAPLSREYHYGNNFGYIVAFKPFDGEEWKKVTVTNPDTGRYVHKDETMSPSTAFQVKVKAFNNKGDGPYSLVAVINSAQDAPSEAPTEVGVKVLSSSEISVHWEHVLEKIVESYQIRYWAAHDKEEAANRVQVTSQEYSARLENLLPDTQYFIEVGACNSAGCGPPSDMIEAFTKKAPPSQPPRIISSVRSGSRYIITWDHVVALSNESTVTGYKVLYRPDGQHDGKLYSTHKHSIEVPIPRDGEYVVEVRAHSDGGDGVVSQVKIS
The test can be described thus: cross-linking (DTSSP) on IMR-32 cells, protein A precipitation, SDS-PAGE. As for the experimental part: Cells were incubated for four hours with medium containing, the different Fc-fusion proteins. Following three washes with cold PBS/Ca (1 mM CaCl₂ in PBS), the cells were incubated for additional 30 minutes with PBS/Ca containing 1 mM DTSSP (3,3′-Dithiobis[sulfosuccinimidyl--propionate], Pierce, Rockford, Ill.). Free cross-linker was removed by additional PBS wash followed by quenching with 100 mM glycine in TBS for 10 minutes at 4° C. Cell lysates were made in SBN lysis buffer (Peles et al., 1991, EMBO J., 10:2077-2086), and Sepharose-protein A was added to the cleared lysates. Following two hours incubation at 4° C., the beads were washed three times with HNTG buffer (Peles et al., 1991, EMBO J., 10:2077-2086), and the bound proteins were eluted by adding SDS PAGE sample buffer containing 5% β-mercaptoethanol and further incubation for 10 minutes at 95° C.
To characterize ligands for RPTPβ, a reversible cross-linker ([…]) was used, and proteins were sought that specifically bound to βC-Fc. Two of the cell lines that bound βC-Fc (IMR32 and GH3), as well as COS7 cells as a control, were allowed to react with the fusion proteins containing the FNIII or the CAH domains followed by cross-linking and precipitation of the complexes. […] No reactivity was detected in control cells or in cells incubated with βF-Fc. […]

The target in another test is T2, rat CASPR/p190 (rat, UniProt P97846 21-1381).
T2 construct: Endogenous in GH3 cells and rat brain, or expressed from pCM190R in COS7 cells; read from membrane lysates; no cleavage site stated; also called Contactin ASsociated PRotein; 190 kDa protein
T2 sequence: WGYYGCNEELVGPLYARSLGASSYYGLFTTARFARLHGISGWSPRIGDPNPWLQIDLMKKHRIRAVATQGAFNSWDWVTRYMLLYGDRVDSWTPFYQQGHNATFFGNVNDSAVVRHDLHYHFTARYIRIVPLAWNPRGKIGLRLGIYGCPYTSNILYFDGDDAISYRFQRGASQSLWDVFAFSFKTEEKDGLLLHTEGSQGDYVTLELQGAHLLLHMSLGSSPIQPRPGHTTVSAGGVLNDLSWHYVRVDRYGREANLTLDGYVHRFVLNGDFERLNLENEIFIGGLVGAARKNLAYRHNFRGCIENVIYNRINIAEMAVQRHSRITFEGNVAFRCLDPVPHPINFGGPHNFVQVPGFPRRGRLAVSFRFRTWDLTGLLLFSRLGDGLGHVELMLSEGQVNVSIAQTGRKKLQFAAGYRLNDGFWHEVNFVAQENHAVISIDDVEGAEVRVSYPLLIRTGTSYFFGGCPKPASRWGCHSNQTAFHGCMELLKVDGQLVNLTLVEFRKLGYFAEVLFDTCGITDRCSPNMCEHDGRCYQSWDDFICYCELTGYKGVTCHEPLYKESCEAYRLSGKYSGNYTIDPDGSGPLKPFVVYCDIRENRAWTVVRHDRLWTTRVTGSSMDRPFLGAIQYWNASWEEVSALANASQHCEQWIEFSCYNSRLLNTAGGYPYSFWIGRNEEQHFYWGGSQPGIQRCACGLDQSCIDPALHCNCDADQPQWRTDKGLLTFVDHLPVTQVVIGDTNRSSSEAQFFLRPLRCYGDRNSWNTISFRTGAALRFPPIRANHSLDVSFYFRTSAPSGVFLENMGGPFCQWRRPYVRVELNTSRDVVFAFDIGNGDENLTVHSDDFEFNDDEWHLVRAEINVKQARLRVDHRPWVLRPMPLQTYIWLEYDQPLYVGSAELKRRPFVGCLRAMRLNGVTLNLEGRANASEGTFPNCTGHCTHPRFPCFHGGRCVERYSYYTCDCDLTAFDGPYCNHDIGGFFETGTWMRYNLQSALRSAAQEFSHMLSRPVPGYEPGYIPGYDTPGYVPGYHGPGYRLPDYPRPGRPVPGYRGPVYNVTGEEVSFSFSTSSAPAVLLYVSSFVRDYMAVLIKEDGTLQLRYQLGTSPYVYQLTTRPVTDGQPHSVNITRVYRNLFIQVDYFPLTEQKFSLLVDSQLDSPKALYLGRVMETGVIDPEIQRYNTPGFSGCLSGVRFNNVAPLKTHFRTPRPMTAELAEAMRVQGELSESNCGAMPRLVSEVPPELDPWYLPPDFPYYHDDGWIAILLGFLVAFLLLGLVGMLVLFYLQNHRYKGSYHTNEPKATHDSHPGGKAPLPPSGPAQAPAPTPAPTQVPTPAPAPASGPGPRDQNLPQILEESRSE
The test can be described thus: bioaffinity precipitation from membrane extracts of labeled GH3 cells.

B1: βF-Fc (FNIII domain of RPTPβ fused to human IgG1-Fc) (Fc fusion)
chain: not shown
notes: domain: FNIII; also called the FNIII domain alone; fibronectin domain alone; not shown: human IgG1 Fc (vector pCNγ1)
On to B1, for which the binding result (in test [1]; in the test with rat CASPR/p190) was “no binding” throughout.
